Test results reported in publication PMC10090351, “DNA accelerates the protease inhibition of a bacterial serpin chloropin” (Frontiers in Molecular Biosciences, 2023).

B1: chloropin (natural protein, Chlorobium limicola, UniProt B3ECZ8 54-420, looked up)
chain: ELAVDLYRNLAVTGKNLFFSPSSIETALSMTMSGARNRTERQMADVMHVGPDAMERHHAGLASFEKQLESIQKKGKVTIASSNSIWPQKNYPLAPSWLAQLKRYYGTSVTPVDYIHETEKARIAINRRVEKDTKNRIRELLKPGILDPLTRLALVNAVYFKGDWEHPFNENNTVASPFYIRQGTTGKAPLMRQSASFGYGDHDGVQVLELPYAGKKLSMIVVLPKERFGLEALEKTLTPKQFALWTANLSERKIEALLPKFRTTSAFRLDETLRHMGMTDAFDRNLADFSGMVSNSDKLYIGAVVHKAFVDVGEKGTEAAAATAVVMQLRSAMPMPVPVFKADHPFLFAIRENSTGRILFMGRISDP

Assays:
thrombin [1] = target: thrombin (UniProt P00734)
thrombin [2] = target: thrombin (UniProt P00734); remark: listed apart in the source
thrombin [3] = target: thrombin (UniProt P00734); remark: listed apart in the source
thrombin [4] = target: thrombin (UniProt P00734); remark: listed apart in the source
kallikrein 7 = kallikrein 7 (UniProt P49862 30-253); assay: cell-based or functional assay
thrombin [5] = target: thrombin (UniProt P00734); remark: listed apart in the source

Chain of kallikrein 7 (P49862 30-253): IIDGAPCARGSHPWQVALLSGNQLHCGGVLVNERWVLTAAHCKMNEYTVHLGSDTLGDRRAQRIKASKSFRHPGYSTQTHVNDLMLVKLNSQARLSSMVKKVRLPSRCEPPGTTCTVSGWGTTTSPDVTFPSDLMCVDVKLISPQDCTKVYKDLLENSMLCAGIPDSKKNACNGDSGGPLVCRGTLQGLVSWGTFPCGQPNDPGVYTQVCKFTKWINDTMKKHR

Molecule	k obs of thrombin inhibition, 375 nM chloropin variant, 75 nM thrombin, with 0.8 nM linear plasmid DNA (thrombin [1]) [s⁻¹]	k obs of thrombin inhibition, 375 nM chloropin variant, 75 nM thrombin, without linear plasmid DNA (thrombin [1]) [s⁻¹]	k obs of thrombin inhibition, 1 uM chloropin variant, 0.1 uM thrombin, with 0.1 uM heparin (thrombin [1]) [s⁻¹]	k obs of thrombin inhibition, 1 uM chloropin variant, 0.1 uM thrombin, without heparin (thrombin [1]) [s⁻¹]	k obs of thrombin inhibition, 375 nM chloropin, 75 nM thrombin, with 0.8 nM linear plasmid DNA (thrombin [1]) [s⁻¹]	k obs of thrombin inhibition, 375 nM chloropin, 75 nM thrombin, with supercoiled plasmid DNA (thrombin [1]) [s⁻¹]	k obs of thrombin inhibition, 375 nM chloropin, 75 nM thrombin, without linear plasmid DNA (thrombin [1]) [s⁻¹]	k obs of thrombin inhibition, 375 nM chloropin, 75 nM thrombin, without supercoiled plasmid DNA (thrombin [1]) [s⁻¹]	k obs of thrombin inhibition, 1 uM chloropin, 0.1 uM thrombin, with 0.1 uM heparin (thrombin [1]) [s⁻¹]	k obs of thrombin inhibition, 1 uM chloropin, 0.1 uM thrombin, without heparin (thrombin [1]) [s⁻¹]	k 2, derived second-order inhibition rate constant (thrombin [2]) [M⁻¹ s⁻¹]	k app, apparent second-order rate constant of thrombin inhibition (residual protease activity) (thrombin [2]) [M⁻¹ s⁻¹]	stoichiometry of inhibition (SI), residual thrombin activity after 12 h with 0-2 uM chloropin (thrombin [2])	fold increase of k obs of thrombin inhibition with low molecular weight heparin (series of concentrations, bell-shaped; 5.9-fold at 0.1 uM, maximum at 0.5 uM) (thrombin [3]) [fold]	second order rate constant of thrombin inhibition with DNA (thrombin [4]) [M⁻¹ s⁻¹]	stoichiometry of inhibition (SI), residual KLK7 activity after 12 h with 0-2 uM chloropin (kallikrein 7)	fold increase of the rate of thrombin inhibition with linear DNA (series of concentrations; maximum around 2.4-4.8 nM) (thrombin [5]) [fold]	fold increase of the rate of thrombin inhibition with supercoiled plasmid DNA (0.05-25.6 nM, bell-shaped; 1.5-fold at 0.1 nM, maximum between 1.6 and 3.2 nM) (thrombin [5]) [fold]
Chloropin K119D (natural protein)	0.0055	0.0038	0.0555	0.0095	–	–	–	–	–	–	–	–	–	–	–	–	–	–
Chloropin K268D/K269D (natural protein)	0.0041	0.0035	0.0096	0.0083	–	–	–	–	–	–	–	–	–	–	–	–	–	–
Chloropin K126D/K127D (natural protein)	0.0035	0.0036	0.0107	0.0086	–	–	–	–	–	–	–	–	–	–	–	–	–	–
B1	–	–	–	–	0.0142	0.0193	0.0035	0.0035	0.0667	0.0083	25000	14700	1.68	17.2	3.6e+06	1.55	142	74
